Data reported in US20050256058A1 (GEORGIA TECH RESEARCH, published 2005).
Numbered stars: 1 amine (or outer) side, 2 acyl side, 3 side chain; on linkers, the order of the positions; unused ones are H or OH. Square brackets hold non-standard residues; d marks the D form. * marks the point of attachment. CH═CH‑CON(CH3)CH2CH2Ph = CN(CCc1ccccc1)C(=O)/C=C/*; AAsp = aza-Asp, O=C(N(CC(=O)[*:3])N[*:1])[*:2]; CH═CH‑CON(CH3)CH2Ph = CN(Cc1ccccc1)C(=O)/C=C/*; CH═CH‑COOEt = CCOC(=O)/C=C/*; Cbz = O=C(OCc1ccccc1)*

T1: Caspase-3 (UniProt P42574 29-277)
T1 sequence (looked up): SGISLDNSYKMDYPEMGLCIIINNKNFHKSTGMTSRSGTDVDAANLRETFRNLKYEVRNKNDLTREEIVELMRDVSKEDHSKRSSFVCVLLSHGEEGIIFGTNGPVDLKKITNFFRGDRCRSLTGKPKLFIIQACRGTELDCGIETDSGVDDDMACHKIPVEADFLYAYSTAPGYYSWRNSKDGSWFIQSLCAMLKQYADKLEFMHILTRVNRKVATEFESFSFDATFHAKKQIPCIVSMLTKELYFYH

T2: Caspase-2 (UniProt P42575 170-452, limits assumed)
T2 sequence (looked up): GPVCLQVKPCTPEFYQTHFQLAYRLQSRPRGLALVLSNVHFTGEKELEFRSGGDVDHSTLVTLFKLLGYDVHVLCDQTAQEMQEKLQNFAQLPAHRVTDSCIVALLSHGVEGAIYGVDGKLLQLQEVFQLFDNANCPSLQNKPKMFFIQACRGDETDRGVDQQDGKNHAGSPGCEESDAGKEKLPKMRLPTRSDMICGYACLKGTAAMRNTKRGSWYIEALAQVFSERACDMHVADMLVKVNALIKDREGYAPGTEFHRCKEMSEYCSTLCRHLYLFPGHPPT

T3: Caspase-10 (UniProt Q92851 220-521, limits assumed)
T3 sequence (looked up): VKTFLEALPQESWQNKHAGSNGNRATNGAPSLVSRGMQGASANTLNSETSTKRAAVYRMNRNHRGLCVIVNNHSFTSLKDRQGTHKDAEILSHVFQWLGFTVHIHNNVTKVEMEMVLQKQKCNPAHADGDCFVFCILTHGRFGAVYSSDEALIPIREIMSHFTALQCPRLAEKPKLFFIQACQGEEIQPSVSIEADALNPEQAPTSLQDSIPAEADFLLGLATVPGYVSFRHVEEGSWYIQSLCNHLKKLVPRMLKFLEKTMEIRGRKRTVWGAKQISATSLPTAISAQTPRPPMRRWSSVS

T4: Caspase-7 (UniProt P55210 24-303)
T4 sequence (looked up): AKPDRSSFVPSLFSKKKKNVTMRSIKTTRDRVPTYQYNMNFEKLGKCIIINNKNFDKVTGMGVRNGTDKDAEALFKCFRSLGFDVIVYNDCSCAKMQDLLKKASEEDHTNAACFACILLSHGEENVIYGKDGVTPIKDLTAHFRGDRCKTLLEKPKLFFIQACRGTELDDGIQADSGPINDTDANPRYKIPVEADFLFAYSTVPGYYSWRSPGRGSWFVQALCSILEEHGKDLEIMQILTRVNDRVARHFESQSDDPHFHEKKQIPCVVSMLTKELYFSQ

T5: Caspase-9 (UniProt P55211 1-416, limits assumed)
T5 sequence (looked up): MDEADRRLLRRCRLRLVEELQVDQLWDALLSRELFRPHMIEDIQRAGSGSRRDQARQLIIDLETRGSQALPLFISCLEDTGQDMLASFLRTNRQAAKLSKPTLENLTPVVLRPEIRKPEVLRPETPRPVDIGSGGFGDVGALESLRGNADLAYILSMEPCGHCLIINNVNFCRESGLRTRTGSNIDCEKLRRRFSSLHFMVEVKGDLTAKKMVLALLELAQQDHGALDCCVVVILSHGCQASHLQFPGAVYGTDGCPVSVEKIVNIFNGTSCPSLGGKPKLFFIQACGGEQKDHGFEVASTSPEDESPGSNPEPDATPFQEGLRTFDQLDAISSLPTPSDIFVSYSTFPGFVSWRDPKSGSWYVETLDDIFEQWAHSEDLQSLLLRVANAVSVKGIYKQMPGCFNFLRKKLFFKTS

T6: Caspase-6 (UniProt P55212 24-293, limits assumed)
T6 sequence (looked up): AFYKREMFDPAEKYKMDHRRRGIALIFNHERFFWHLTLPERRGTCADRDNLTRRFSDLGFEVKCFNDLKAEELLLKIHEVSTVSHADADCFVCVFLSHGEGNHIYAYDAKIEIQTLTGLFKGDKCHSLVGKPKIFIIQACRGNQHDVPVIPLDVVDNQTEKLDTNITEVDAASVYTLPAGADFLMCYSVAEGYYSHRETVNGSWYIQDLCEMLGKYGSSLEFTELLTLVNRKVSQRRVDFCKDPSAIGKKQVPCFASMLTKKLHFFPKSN

B1: Cbz-Leu-Glu-Thr-AAsp-CH═CH-CON(CH3)CH2Ph (peptide)
peptide: Cbz-LET[AAsp]-{CH═CH‑CON(CH3)CH2Ph}
SMILES: CC(C)C[C@H](NC(=O)OCc1ccccc1)C(=O)N[C@@H](CCC(=O)O)C(=O)N[C@H](C(=O)NN(CC(=O)O)C(=O)/C=C/C(=O)N(C)Cc1ccccc1)[C@@H](C)O
B2: Cbz-Leu-Glu-Thr-AAsp-CH═CH-CON(CH3)CH2CH2Ph (peptide)
peptide: Cbz-LET[AAsp]-{CH═CH‑CON(CH3)CH2CH2Ph}
SMILES: CC(C)C[C@H](NC(=O)OCc1ccccc1)C(=O)N[C@@H](CCC(=O)O)C(=O)N[C@H](C(=O)NN(CC(=O)O)C(=O)/C=C/C(=O)N(C)CCc1ccccc1)[C@@H](C)O
B3: Cbz-Glu-Val-AAsp-CH═CH-COOEt (peptide)
peptide: Cbz-Glu-Val-[AAsp]-{CH═CH‑COOEt}
SMILES: CCOC(=O)/C=C/C(=O)N(CC(=O)O)NC(=O)[C@@H](NC(=O)[C@H](CCC(=O)O)NC(=O)OCc1ccccc1)C(C)C

Molecular target: T1, Caspase-3
Experiment: cell-based or functional assay

Q: Which k2 does the source give for B1 here?
A: The k2 was 6000 M⁻¹ s⁻¹.

Q: How did the k2 turn out when B2 was run?
A: The k2 was 2620 M⁻¹ s⁻¹.

Q: For Cbz-Val-[AAsp]-{CH═CH‑COOEt} [Cbz-Val-AAsp-CH═CH-COOEt], which k2 is on record?
A: The k2 was 8000 M⁻¹ s⁻¹.

Q: Which k2 does the source give for Cbz-Val-[AAsp]-{CH═CH‑CONH‑nBu} [Cbz-Val-AAsp-CH═CH-CONH-nBu] here?
A: The k2 was 184 M⁻¹ s⁻¹.

Q: Cbz-Val-[AAsp]-{CH═CH‑CONHCH2Ph} [Cbz-Val-AAsp-CH═CH-CONHCH2Ph] was tested. Which k2 did it give?
A: Its k2 is 185 M⁻¹ s⁻¹.

Q: Which k2 does the source give for B3 here?
A: Its k2 is 38600 M⁻¹ s⁻¹.

Q: With Cbz-DEV[AAsp]-{cis‑CH═CH‑COOEt} [Cbz-Asp-Glu-Val-AAsp-CH═CH-COOEt (cis)] as the binder, how does the k2 read?
A: The k2 was 1.06e+06 M⁻¹ s⁻¹.

Q: For Cbz-DEV[AAsp]-{CH═CH‑CONHCH2‑4‑F‑Ph} [Cbz-Asp-Glu-Val-AAsp-CH═CH-CONHCH2-4-F-Ph], which k2 is on record?
A: Its k2 is 2.1e+06 M⁻¹ s⁻¹.

Molecular target: T2, Caspase-2
Experiment: cell-based or functional assay

Q: How did the k2 turn out when B1 was run?
A: Its k2 is 140 M⁻¹ s⁻¹.

Q: B2 was tested. Which k2 did it give?
A: The k2 was 50 M⁻¹ s⁻¹.

Q: For B3, which k2 is on record?
A: The k2 was 90 M⁻¹ s⁻¹.

Q: With Cbz-DEV[AAsp]-{cis‑CH═CH‑COOEt} [Cbz-Asp-Glu-Val-AAsp-CH═CH-COOEt (cis)] as the binder, how does the k2 read?
A: Its k2 is 26200 M⁻¹ s⁻¹.

Molecular target: T3, Caspase-10
Experiment: cell-based or functional assay

Q: B1 was tested. Which k2 did it give?
A: The k2 was 8430 M⁻¹ s⁻¹.

Q: B2 was tested. Which k2 did it give?
A: The k2 was 6190 M⁻¹ s⁻¹.

Q: For Cbz-Val-[AAsp]-{CH═CH‑COOEt} [Cbz-Val-AAsp-CH═CH-COOEt], which k2 is on record?
A: Its k2 is 389 M⁻¹ s⁻¹.

Q: For B3, which k2 is on record?
A: The k2 was 8940 M⁻¹ s⁻¹.

Q: For Cbz-DEV[AAsp]-{cis‑CH═CH‑COOEt} [Cbz-Asp-Glu-Val-AAsp-CH═CH-COOEt (cis)], which k2 is on record?
A: The k2 was 13500 M⁻¹ s⁻¹.

Q: With Cbz-DEV[AAsp]-{CH═CH‑CONHCH2‑4‑F‑Ph} [Cbz-Asp-Glu-Val-AAsp-CH═CH-CONHCH2-4-F-Ph] as the binder, how does the k2 read?
A: Its k2 is 37700 M⁻¹ s⁻¹.

Molecular target: T4, Caspase-7
Experiment: cell-based or functional assay

Q: How did the k2 turn out when B1 was run?
A: Its k2 is 520 M⁻¹ s⁻¹.

Q: B2 was tested. Which k2 did it give?
A: The k2 was 290 M⁻¹ s⁻¹.

Q: For Cbz-Val-[AAsp]-{CH═CH‑COOEt} [Cbz-Val-AAsp-CH═CH-COOEt], which k2 is on record?
A: The k2 was 2680 M⁻¹ s⁻¹.

Q: Which k2 does the source give for Cbz-Val-[AAsp]-{CH═CH‑CONH‑nBu} [Cbz-Val-AAsp-CH═CH-CONH-nBu] here?
A: Its k2 is 55 M⁻¹ s⁻¹.

Q: Which k2 does the source give for Cbz-Val-[AAsp]-{CH═CH‑CONHCH2Ph} [Cbz-Val-AAsp-CH═CH-CONHCH2Ph] here?
A: Its k2 is 60 M⁻¹ s⁻¹.

Q: How did the k2 turn out when B3 was run?
A: Its k2 is 52400 M⁻¹ s⁻¹.

Q: How did the k2 turn out when Cbz-DEV[AAsp]-{cis‑CH═CH‑COOEt} [Cbz-Asp-Glu-Val-AAsp-CH═CH-COOEt (cis)] was run?
A: Its k2 is 139000 M⁻¹ s⁻¹.

Q: How did the k2 turn out when Cbz-Val-[AAsp]-{CH═CH‑CH═CH‑CH3} [Cbz-Val-AAsp-CH═CH-CH═CH-CH3] was run?
A: The k2 was 56 M⁻¹ s⁻¹.

Q: Which k2 does the source give for Cbz-DEV[AAsp]-{CH═CH‑CONHCH2‑4‑F‑Ph} [Cbz-Asp-Glu-Val-AAsp-CH═CH-CONHCH2-4-F-Ph] here?
A: The k2 was 329000 M⁻¹ s⁻¹.

Molecular target: Caspase-8 (UniProt Q14790 217-479)
Experiment: cell-based or functional assay

Sequence of Caspase-8 (Q14790 217-479 limits assumed): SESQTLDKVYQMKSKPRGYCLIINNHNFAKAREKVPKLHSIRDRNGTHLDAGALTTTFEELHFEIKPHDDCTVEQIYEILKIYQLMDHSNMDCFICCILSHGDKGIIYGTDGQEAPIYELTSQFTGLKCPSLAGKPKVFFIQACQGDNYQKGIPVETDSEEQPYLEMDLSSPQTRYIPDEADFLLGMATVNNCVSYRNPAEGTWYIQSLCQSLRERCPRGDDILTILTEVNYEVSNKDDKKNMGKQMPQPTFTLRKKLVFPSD

Q: With B1 as the binder, how does the k2 read?
A: The k2 was 169000 M⁻¹ s⁻¹.

Q: B2 was tested. Which k2 did it give?
A: The k2 was 65300 M⁻¹ s⁻¹.

Q: Cbz-DEV[AAsp]-{cis‑CH═CH‑COOEt} [Cbz-Asp-Glu-Val-AAsp-CH═CH-COOEt (cis)] was tested. Which k2 did it give?
A: The k2 was 181000 M⁻¹ s⁻¹.

Q: For Cbz-DEV[AAsp]-{CH═CH‑CONHCH2‑4‑F‑Ph} [Cbz-Asp-Glu-Val-AAsp-CH═CH-CONHCH2-4-F-Ph], which k2 is on record?
A: The k2 was 85100 M⁻¹ s⁻¹.

Molecular target: T5, Caspase-9
Experiment: cell-based or functional assay

Q: With Cbz-Val-[AAsp]-{CH═CH‑Cl} (also: cis isomer) [Cbz-Val-AAsp-CH═CH-Cl] as the binder, how does the k2 read?
A: Its k2 is 15 M⁻¹ s⁻¹.

Q: B1 was tested. Which k2 did it give?
A: Its k2 is 4320 M⁻¹ s⁻¹.

Q: B2 was tested. Which k2 did it give?
A: Its k2 is 960 M⁻¹ s⁻¹.

Q: Cbz-Val-[AAsp]-{CH═CH‑4‑Cl‑Ph} [Cbz-Val-AAsp-CH═CH-4-Cl-Ph] was tested. Which k2 did it give?
A: The k2 was 19 M⁻¹ s⁻¹.

Q: With Cbz-Val-[AAsp]-{CH═CH‑COOEt} [Cbz-Val-AAsp-CH═CH-COOEt] as the binder, how does the k2 read?
A: The k2 was 5240 M⁻¹ s⁻¹.

Q: How did the k2 turn out when Cbz-Val-[AAsp]-{CH═CH‑CONH‑nBu} [Cbz-Val-AAsp-CH═CH-CONH-nBu] was run?
A: Its k2 is 32 M⁻¹ s⁻¹.

Q: With Cbz-Val-[AAsp]-{CH═CH‑CONHCH2Ph} [Cbz-Val-AAsp-CH═CH-CONHCH2Ph] as the binder, how does the k2 read?
A: Its k2 is 20 M⁻¹ s⁻¹.

Q: How did the k2 turn out when Cbz-DEV[AAsp]-{CH═CH‑CONHCH2‑4‑F‑Ph} [Cbz-Asp-Glu-Val-AAsp-CH═CH-CONHCH2-4-F-Ph] was run?
A: The k2 was 900 M⁻¹ s⁻¹.

Molecular target: T6, Caspase-6
Experiment: cell-based or functional assay

Q: With B1 as the binder, how does the k2 read?
A: The k2 was 10800 M⁻¹ s⁻¹.

Q: Which k2 does the source give for B2 here?
A: Its k2 is 2550 M⁻¹ s⁻¹.

Q: B3 was tested. Which k2 did it give?
A: Its k2 is 3540 M⁻¹ s⁻¹.

Q: Which k2 does the source give for Cbz-DEV[AAsp]-{cis‑CH═CH‑COOEt} [Cbz-Asp-Glu-Val-AAsp-CH═CH-COOEt (cis)] here?
A: The k2 was 11000 M⁻¹ s⁻¹.

Q: For Cbz-DEV[AAsp]-{CH═CH‑CONHCH2‑4‑F‑Ph} [Cbz-Asp-Glu-Val-AAsp-CH═CH-CONHCH2-4-F-Ph], which k2 is on record?
A: The k2 was 4400 M⁻¹ s⁻¹.
